Measurements taken from paper PMC8960874 (2022).

B1: Clone 2 mAb (human IgG1 with mouse variable regions) (antibody, V domains shown)
VH: EVQLQQSGPELVKPGASVKISCKASGYSFTGYSMNWMKQSPEKSLEWIGEINPSTGGTTDNQKFKAKATLTVDKSSSTAYMQLKSLTSEDSAVYYCARSRGDYWGQGTSVTVSS
VL: DIVLTQSPASLAVSLGQRATISCRASESVEYYGTSLMQWYQQKPGQPPKVLIYAASNVESGVPARFSGSGSGTDFSLNIHPVEEDDIAMYFCQQSRKVPWTFGGGTKLEIK
B2: Clone 6 mAb (human IgG1 with mouse variable regions) (antibody, V domains shown)
VH: QVQLQQSAAELARPGASVKMSCKASGYTFTSYTMHWVKQRPGQGLEWIGYINPTSGYTEYNQNFKDKTTLTADKSSSTAYMQLNSLTSEDSAVYYCAREGHRVGPAYWGQGTLVTVSA
VL: not shown

Assays:
[1] = molecular target: T1, SARS-CoV-2 spike receptor binding domain (RBD) protein with a C-terminal hexahistidine tag (SARS-CoV-2, UniProt P0DTC2 319-541); test: BLI
[2] = molecular target: T1, SARS-CoV-2 spike receptor binding …; test: BLI; remark: listed apart in the source

Binder	Kd [1]	koff [2]
B1	1.58 pM	1.49e-07 s⁻¹
B2	1.89 pM	3.65e-07 s⁻¹
